For test [1], the target named is T1, human FGFR3b expressed with a C-terminal myc-myc-hexahistidine tag (hFGFR3b.mmH) (human).
T1 construct: also called REGN3152; monomeric human FGFR3b
T1 chain: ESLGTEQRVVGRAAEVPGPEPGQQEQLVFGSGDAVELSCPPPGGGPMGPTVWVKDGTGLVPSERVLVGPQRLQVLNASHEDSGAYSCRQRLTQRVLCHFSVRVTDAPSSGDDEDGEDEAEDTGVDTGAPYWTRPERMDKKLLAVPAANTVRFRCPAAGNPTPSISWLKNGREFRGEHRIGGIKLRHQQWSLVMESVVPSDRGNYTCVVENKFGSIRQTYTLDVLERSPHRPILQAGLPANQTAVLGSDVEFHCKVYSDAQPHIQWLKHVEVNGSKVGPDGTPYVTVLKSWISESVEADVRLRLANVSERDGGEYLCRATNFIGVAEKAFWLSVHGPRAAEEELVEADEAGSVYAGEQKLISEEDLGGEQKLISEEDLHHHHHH
Nature of the test: SPR Biacore, mAb captured on anti-hFc, 25C. As for the experimental part:
(§1) The CM5 Biacore sensor surface was derivatized by amine coupling with a monoclonal mouse anti-human Fc monoclonal antibody (REGN2567). […] Antibody-reagent association was monitored for 5 minutes while dissociation in HBS-EP running buffer was monitored for 10 minutes. At the end of each cycle, the anti-FGFR3 antibody capture surface was regenerated using a 10 sec injection of 20 mM phosphoric acid. All binding kinetics experiments were performed at 25° C.
(§2) The specific SPR-Biacore sensorgrams were obtained by a double referencing procedure. The double referencing was performed by first subtracting the signal of each injection over a reference surface (anti-hFc) from the signal over the experimental surface (anti-hFc-captured anti-FGFR3 antibodies) thereby removing contributions from refractive index changes. In addition, running buffer injections were performed to allow subtraction of the signal changes resulting from the dissociation of captured antibodies from the coupled anti-hFc surface. Kinetic association (kₐ) and dissociation (kd) rate constants were determined by fitting the real-time sensorgrams to a 1:1 binding model using Scrubber v2.0c curve fitting software.

The target in test [2] is T2, cynomolgus FGFR3b expressed with a C-terminal myc-myc-hexahistidine tag (mfFGFR3b.mmH) (cynomolgus).
T2 construct: also called REGN3521; mf FGFR3b ecto (R357G)(E23-G377;R357G).mmH
T2 chain: T1 chain with A13V, P17S, G22S, T57A, R94L, R171K
Nature of the test: SPR Biacore, mAb captured on anti-hFc, 25C. As for the experimental part: as §1, §2

Test [3] concerns the target T3, murine FGFR3b expressed with a C-terminal myc-myc-hexahistidine tag (mFGFR3b.mmH) (murine).
T3 construct: also called REGN3215; monomeric murine FGFR3b
T3 chain: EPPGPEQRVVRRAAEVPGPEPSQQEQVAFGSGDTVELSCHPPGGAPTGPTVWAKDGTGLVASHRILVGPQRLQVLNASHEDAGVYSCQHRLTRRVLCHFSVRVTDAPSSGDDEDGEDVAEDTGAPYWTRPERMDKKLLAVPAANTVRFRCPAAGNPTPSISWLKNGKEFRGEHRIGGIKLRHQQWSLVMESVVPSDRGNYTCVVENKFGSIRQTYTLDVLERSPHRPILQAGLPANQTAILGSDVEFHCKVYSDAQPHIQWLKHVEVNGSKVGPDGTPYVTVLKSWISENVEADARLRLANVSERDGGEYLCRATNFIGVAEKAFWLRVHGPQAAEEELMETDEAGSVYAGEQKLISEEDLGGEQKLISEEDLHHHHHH
The test can be described thus: SPR Biacore, mAb captured on anti-hFc, 25C. The procedure:
as §1, §2

The target in test [4] is T4, human FGFR3b expressed with a C-terminal murine Fc tag (hFGFR3b.mFc) (human).
T4 construct: called dimeric; also called REGN3153; dimeric human FGFR3b
T4 chain: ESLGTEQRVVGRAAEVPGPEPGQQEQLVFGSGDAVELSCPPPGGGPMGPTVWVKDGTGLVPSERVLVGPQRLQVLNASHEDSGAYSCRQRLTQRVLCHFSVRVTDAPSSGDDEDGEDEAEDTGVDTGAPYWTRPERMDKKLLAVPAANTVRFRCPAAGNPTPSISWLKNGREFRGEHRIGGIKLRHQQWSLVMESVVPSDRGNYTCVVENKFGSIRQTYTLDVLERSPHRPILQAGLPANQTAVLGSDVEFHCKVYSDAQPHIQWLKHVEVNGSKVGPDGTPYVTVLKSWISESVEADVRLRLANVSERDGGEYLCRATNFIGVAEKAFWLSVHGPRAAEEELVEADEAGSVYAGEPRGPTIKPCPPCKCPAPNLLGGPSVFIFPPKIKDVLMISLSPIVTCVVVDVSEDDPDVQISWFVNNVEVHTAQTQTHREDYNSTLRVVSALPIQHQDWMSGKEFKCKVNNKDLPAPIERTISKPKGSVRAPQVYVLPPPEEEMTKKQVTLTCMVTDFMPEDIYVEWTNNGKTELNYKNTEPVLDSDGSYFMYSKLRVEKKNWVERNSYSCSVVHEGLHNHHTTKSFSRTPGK
Nature of the test: SPR Biacore, mAb captured on anti-hFc, 25C. As for the experimental part: as §1, §2

Test [5] addresses T5, human FGFR3c expressed with a C-terminal myc-myc-hexahistidine tag (hFGFR3c.mmH) (human, UniProt P22607 23-375).
T5 construct: also called REGN3155; monomeric human FGFR3c
The test can be described thus: SPR Biacore, mAb captured on anti-hFc, 25C; row marked NB. The procedure: as §1, §2

For test [6], the target named is T4, human FGFR3b expressed with a …. Nature of the test: competition ELISA: 4 nM hFGFR3b-mFc binding to plate-coated hFGF acidic. As for the experimental part:
The fixed concentration of hFGFR3b or hFGFR3c proteins was selected to be near the concentration that generated 50% of the maximal binding (EC₅₀ value) to plate-adhered hFGF acidic or hFGF basic protein. […] The plates were then developed using TMB substrate solution (BD Biosciences) according to the manufacturer's recommended procedure and absorbance at 450 nm was measured on a Victor X5 plate reader.
Binding data were analyzed using a sigmoidal (four-parameter logistic) dose-response model using GraphPad Prism software. […] Percent blocking of FGFR3 antibody at a given concentration was calculated based on the formula shown below.
The ability of anti-FGFR3 antibodies to block human FGFR3b binding to hFGF acidic protein or hFGFR3c binding to hFGF acidic or hFGF basic proteins was evaluated using a sandwich ELISA-based blocking assay.

Positions count from the first letter of the chain named. A value given as a limit tells only on which side of the number the result lay.

B1: H4H30108P2 (antibody, human IgG4 S228P, kappa, V domains shown)
VH: QVQLVQSGAEVKKPGASVKVSCKASGYTFNSYDVNWVRQATGQGLEWMGWMNPHSGNTGYAQKFQGRVTMTRDTSTSTSYMELSSLTSEDTAVYYCARGPFSLLSAEFFQHWGQGTLVTVSS
VL: not shown
As for B1, in test [1], the “90 nM hFGFR3b.mmH Bind (RU)” value turned out to be 227 RU, the koff stood at 0.000159 s⁻¹, the kon was 176000 M⁻¹ s⁻¹ and the “t½” value turned out to be 1.21 h. For the same molecule, in test [2], the “90 nM mfFGFR3b.mmH Bind (RU)” value is 212 RU, the equilibrium dissociation constant (Kd) was determined as 0.909 nM, the koff worked out at 0.000136 s⁻¹ and the on-rate constant (kon) is 149000 M⁻¹ s⁻¹. For the same molecule, in test [2], the “t½” value amounted to 1.42 h. Also, in test [3], the “90 nM mFGFR3b.mmH Bind (RU)” value is 121 RU, the koff stood at 0.00199 s⁻¹, the association rate constant (kon) came out at 162000 M⁻¹ s⁻¹ and the “t½” value amounted to 0.0967 h. Also, in test [4], the “30 nM hFGFR3b.mFc Bind (RU)” value was determined as 213 RU, the koff was at most 1e-05 s⁻¹, the kon is 311000 M⁻¹ s⁻¹ and the “t½” value was at least 19.2 h. The “90 nM hFGFR3c.mmH Bind (RU)” value in test [5] is -2.5 RU.

B2: H4H30089P2 (antibody, human IgG4 S228P, kappa, V domains shown)
VH: EVQLVESGGGLVQPGGSLRLSCIVSGFIFSSYEMSWLRQAPGKGLEWISYISSSGRVIYYADSVKGRFTISRDSAKNSLYLEMNSLRAEDTAIYYCTRKWDSSGPFDFWGQGTLVTVSS
VL: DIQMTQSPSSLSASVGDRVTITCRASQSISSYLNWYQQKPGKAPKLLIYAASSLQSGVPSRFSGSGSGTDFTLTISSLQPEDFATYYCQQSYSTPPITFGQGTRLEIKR
notes: HCVR 62, LCVR 70
For the molecule B2, in test [1], the “90 nM hFGFR3b.mmH Bind (RU)” value came to 152 RU, binding was characterised by a dissociation constant (Kd) of 10.2 nM, the koff was determined as 0.00282 s⁻¹ and the association rate constant (kon) was 276000 M⁻¹ s⁻¹. Besides, the “t½” value in test [1] is 0.0683 h. Moreover, in test [2], the “90 nM mfFGFR3b.mmH Bind (RU)” value amounted to 147 RU, the Kd was found to be 10.3 nM, the koff stood at 0.00221 s⁻¹ and the on-rate (kon) was found to be 216000 M⁻¹ s⁻¹. Further, the “t½” value in test [2] came out at 0.0867 h. In addition, in test [3], the “90 nM mFGFR3b.mmH Bind (RU)” value was 60 RU, the Kd came to 8.45 nM, the koff was determined as 0.00238 s⁻¹ and the kon amounted to 281000 M⁻¹ s⁻¹. For the same molecule, in test [3], the “t½” value turned out to be 0.0817 h. In test [4], the “30 nM hFGFR3b.mFc Bind (RU)” value turned out to be 214 RU; the affinity, expressed as Kd, was 0.061 nM; the koff turned out to be 1.9e-05 s⁻¹; the kon was 312000 M⁻¹ s⁻¹. Further, the “t½” value in test [4] worked out at 10.1 h. Moreover, the “90 nM hFGFR3c.mmH Bind (RU)” value in test [5] was -6.7 RU. Further, in test [6], the “% Blocking at 200 nM mAb” value turned out to be 68% and the IC50 was determined as 15 nM.

B3: H4H30076P (antibody, human IgG4 S228P, kappa, V domains shown)
VH: EVQLVESGGGLVQPGGSLRLSCAASGFTVSSNYMSWVRQAPGKGLEWVSIIYSGGHTYYSDSVKGRFTISRHNSKNTLYLQMNSLRGGDTAVYYCARGYTSGWYGFDFWGQGTLVTVSS
VL: DIQMTQSPSSVSASVGDRVTITCRASQGISTWLAWYQQKPGKAPKLLIYAASSLQSGVPSRFSGTGSGTDFTLTISSLQPEDFATYYCQQTNSFPWTFGQGTKVEIKR
As to B3, in test [1], the “90 nM hFGFR3b.mmH Bind (RU)” value was 198 RU, the Kd came to 0.186 nM, the off-rate (koff) was found to be 4.39e-05 s⁻¹ and the kon amounted to 236000 M⁻¹ s⁻¹. In addition, in test [1], the “t½” value worked out at 4.39 h. Moreover, in test [2], the “90 nM mfFGFR3b.mmH Bind (RU)” value turned out to be 180 RU; the affinity, expressed as Kd, was 0.165 nM; the koff is 3.3e-05 s⁻¹; the kon is 200000 M⁻¹ s⁻¹. Moreover, in test [2], the “t½” value worked out at 5.84 h. In test [3], the “90 nM mFGFR3b.mmH Bind (RU)” value was determined as 201 RU; the affinity, expressed as Kd, was 0.141 nM; the koff was found to be 3.61e-05 s⁻¹; the kon came out at 256000 M⁻¹ s⁻¹. In addition, the “t½” value in test [3] worked out at 5.33 h. In addition, in test [4], the “30 nM hFGFR3b.mFc Bind (RU)” value was determined as 204 RU, the dissociation constant Kd is at most 0.0246 nM, the koff is at most 1e-05 s⁻¹ and the kon came out at 407000 M⁻¹ s⁻¹. Besides, the “t½” value in test [4] is at least 19.2 h. The “90 nM hFGFR3c.mmH Bind (RU)” value in test [5] was -9.7 RU.

B4: H4H30071P (antibody, human IgG4 S228P, kappa, V domains shown)
VH: QVQLQQSGPGLVKPSQTLSLTCAISGDSVSRNSAAWNWIRQSPSSGLEWLGRTYYRSKWFYDYAISVKSRITVNPDTSKNQFSLHLNSVTPEDTAVYYCARGYGGYEDYFDYWGQGTLVTVSS
VL: B3 VL with T31S, A50G, T65S, Y87F, T91G, N92S, W96Y, V104L
notes: HCVR 42, LCVR 50
Regarding B4, in test [1], the “90 nM hFGFR3b.mmH Bind (RU)” value was 253 RU, the dissociation constant (Kd) worked out at 0.137 nM, the koff worked out at 2.96e-05 s⁻¹ and the kon is 216000 M⁻¹ s⁻¹. The “t½” value in test [1] came out at 6.51 h. Further, in test [2], the “90 nM mfFGFR3b.mmH Bind (RU)” value amounted to 233 RU, the equilibrium dissociation constant (Kd) came out at 0.123 nM, the koff was determined as 2.22e-05 s⁻¹ and the kon came out at 180000 M⁻¹ s⁻¹. In addition, in test [2], the “t½” value stood at 8.67 h. In addition, in test [3], the “90 nM mFGFR3b.mmH Bind (RU)” value came to 174 RU, binding was characterised by a dissociation constant (Kd) of 7.65 nM, the koff came out at 0.00169 s⁻¹ and the kon amounted to 220000 M⁻¹ s⁻¹. The “t½” value in test [3] was 0.115 h. Further, in test [4], the “30 nM hFGFR3b.mFc Bind (RU)” value was determined as 236 RU, the Kd was at most 0.031 nM, the off-rate constant (koff) was at most 1e-05 s⁻¹ and the on-rate (kon) is 322000 M⁻¹ s⁻¹. In addition, in test [4], the “t½” value was at least 19.2 h. Also, the “90 nM hFGFR3c.mmH Bind (RU)” value in test [5] was -4.8 RU. Also, in test [6], the “% Blocking at 200 nM mAb” value worked out at 88% and the IC50 came to 3.6 nM.

Values taken from patent publication US20240158515A1 (Regeneron, published 2024).
